Assay results from patent US11732029B2, “Methods and compositions for the treatment of wounds” (The University of Chicago, priority 2017, dated 2023).

T1: VEGF-A165 (Homo sapiens, UniProt P15692)
T1 construct: All growth factors (GFs) and chemokines were purchased in their mature forms; purchased PeproTech; host or cells: Escherichia coli
T1 sequence (P15692 27-191 isoform P15692-4 limits assumed): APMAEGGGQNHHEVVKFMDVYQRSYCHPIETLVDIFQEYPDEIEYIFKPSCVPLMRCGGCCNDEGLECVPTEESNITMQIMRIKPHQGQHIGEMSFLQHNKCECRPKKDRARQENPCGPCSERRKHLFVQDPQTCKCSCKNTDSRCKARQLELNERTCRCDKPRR

T2: PlGF-1 (Homo sapiens, UniProt P49763)
T2 sequence (P49763 19-149 isoform P49763-2 limits assumed): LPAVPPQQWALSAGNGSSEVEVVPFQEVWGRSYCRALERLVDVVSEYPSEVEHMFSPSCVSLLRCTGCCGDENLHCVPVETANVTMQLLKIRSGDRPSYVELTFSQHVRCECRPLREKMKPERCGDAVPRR

T3: PlGF-2 (Homo sapiens, UniProt P49763)
T3 sequence (P49763 19-170 isoform P49763-3 limits assumed): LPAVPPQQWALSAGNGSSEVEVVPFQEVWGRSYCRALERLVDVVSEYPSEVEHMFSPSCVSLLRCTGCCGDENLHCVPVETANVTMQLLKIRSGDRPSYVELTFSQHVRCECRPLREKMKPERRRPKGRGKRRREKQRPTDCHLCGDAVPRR

T4: VEGF-A121 (Homo sapiens, UniProt P15692)
T4 sequence (P15692 27-147 isoform P15692-9 limits assumed): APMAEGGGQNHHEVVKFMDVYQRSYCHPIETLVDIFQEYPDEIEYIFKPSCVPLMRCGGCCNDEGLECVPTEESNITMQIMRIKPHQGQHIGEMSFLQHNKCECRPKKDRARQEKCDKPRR

B1: α53026-3482: laminin alpha 5 LG domain recombinant protein (LD BioPharma) (protein)
chain: AIQVFLLGGSRKRVLVRVERATVYSVEQDNDLELADAYYLGGVPPDQLPPSLRRLFPTGGSVRGCVKGIKALGKYVDLKRLNTTGVSAGCTADLLVGRAMTFHGHGFLRLALSNVAPLTGNVYSGFGFHSAQDSALLYYRASPDGLCQVSLQQGRVSLQLLRTEVKTQAGFADGAPHYVAFYSNATGVWLYVDDQLQQMKPHRGPPPELQPQPEGPPRLLLGGLPESGTIYNFSGCISNVFVQRLLGPQRVFDLQQNLGSVNVSTGCAPALQAQTPGLGPRGLQATARKASRRSRQPARHPACMLPPHLRTTRDSYQFGGSLSSHLEFVGILARHRNWPSLSMHVLPRSSRGLLLFTARLRPGSPSLALFLSNGHFVAQMEGLGTRLRAQSRQRSRPGRWHKVSVRWEKNRILLVTDGARAWSQEGPHRQHQGAEHPQPHTLFVGGLPASSHSSKLP
B2: α4826-1816: laminin alpha 4 LG domain recombinant protein (R&D systems) (protein)
chain: QVSMMFDGQSAVEVHSRTSMDDLKAFTSLSLYMKPPVKRPELTETADQFILYLGSKNAKKEYMGLAIKNDNLVYVYNLGTKDVEIPLDSKPVSSWPAYFSIVKIERVGKHGKVFLTVPSLSSTAEEKFIKKGEFSGDDSLLDLDPEDTVFYVGGVPSNFKLPTSLNLPGFVGCLELATLNNDVISLYNFKHIYNMDPSTSVPCARDKLAFTQSRAASYFFDGSGYAVVRDITRRGKFGQVTRFDIEVRTPADNGLILLMVNGSMFFRLEMRNGYLHVFYDFGFSGGPVHLEDTLKKAQINDAKYHEISIIYHNDKKMILVVDRRHVKSMDNEKMKIPFTDIYIGGAPPEILQSRALRAHLPLDINFRGCMKGFQFQKKDFNLLEQTETLGVGYGCPEDSLISRRAYFNGQSFIASIQKISFFDGFEGGFNFRTLQPNGLLFYYASGSDVFSISLDNGTVIMDVKGIKVQSVDKQYNDGLSHFVISSVSPTRYELIVDKSRVGSKNPTKGKIEQTQASEKKFYFGGSPISAQYANFTGCISNAYFTRVDRDVEVEDFQRYTEKVHTSLYECPIESSPLFLLHKKGKNLSKPKASQNKKGGKSKDAPSWDPVALKLPERNTPRNSHCHLSNSPRAIEHAYQYGGTANSRQEFEHLKGDFGAKSQFSIRLRTRSSHGMIFYVSDQEENDFMTLFLAHGRLVYMFNVGHKKLKIRSQEKYNDGLWHDVIFIRERSSGRLVIDGLRVLEESLPPTEATWKIKGPIYLGGVAPGKAVKNVQINSIYSFSGCLSNLQLNGASITSASQTFSVTPCFEGPMETGTYFSTEGGYVVLDESFNIGLKFEIAFEVRPRSSSGTLVHGHSVNGEYLNVHMKNGQVIVKVNNGIRDFSTSVTPKQSLCDGRWHRITVIRDSNVVQLDVDSEVNHVVGPLNPKPIDHREPVFVGGVPESLLTPRLAPSKPFTGCIRHFVIDGHPVSFSKAALVSGAVSINSCPAA

How the values were obtained:
Experiment in all cases: GF binding to recombinant laminin LG domain protein and synthesized laminin HBD peptides (ELISA)
Conditions in all cases: plate coated with LG domain protein or peptide, 1 μg/mL GF, vs BSA-coated wells
PDGF-BB = target: T5, PDGF-BB (Homo sapiens, UniProt P01127)
T5 construct: All growth factors (GFs) and chemokines were purchased in their mature forms; purchased PeproTech; host or cells: Escherichia coli
Experimental: (§1) ELISA tests were performed as described above. In brief, ELISA plates were coated with 1 μg/mL of laminin alpha 3 LG domain recombinant protein, laminin alpha 4 LG domain recombinant protein (R&D systems), laminin alpha 5 LG domain recombinant protein (LD BioPharma), or laminin peptide (sequences are described in Table 1, chemically synthesized by Genscript) in PBS for 2 hrs at 37° C. 1 μg/mL of BSA served as non-binding protein control. After blocking with 2% BSA PBS-0.05% Tween 20 (PBS-T) solution, 1 μg/mL of the recombinant human proteins (VEGF-A121, VEGF-A165, PlGF-1, PlGF-2, PDGF-BB or FGF-2) or 10 μg/mL of biotinylated heparin (Sigma-Aldrich) were added. Bound GF was detected with biotinylated antibodies for human VEGF, PlGF, PDGF-BB, or FGF-2 (R&D Systems). The antibodies were detected by streptavidin-HRP (R&D Systems).

VEGF-A165 = target: T1, VEGF-A165
Experimental: as §1

PlGF-1 = target: T2, PlGF-1; parameters: All growth factors (GFs) and chemokines were purchased in their mature forms; purchased PeproTech; host or cells: Escherichia coli
Experimental: as §1

FGF-2 = FGF-2 (Homo sapiens, UniProt P09038); parameters: All growth factors (GFs) and chemokines were purchased in their mature forms; purchased PeproTech; host or cells: Escherichia coli
Experimental: as §1

PlGF-2 = target: T3, PlGF-2; parameters: All growth factors (GFs) and chemokines were purchased in their mature forms; purchased PeproTech; host or cells: Escherichia coli
Experimental: as §1

VEGF-A121 = target: T4, VEGF-A121; parameters: All growth factors (GFs) and chemokines were purchased in their mature forms; purchased PeproTech; host or cells: Escherichia coli
Experimental: as §1

FGF-2, sequence (P09038 143-288): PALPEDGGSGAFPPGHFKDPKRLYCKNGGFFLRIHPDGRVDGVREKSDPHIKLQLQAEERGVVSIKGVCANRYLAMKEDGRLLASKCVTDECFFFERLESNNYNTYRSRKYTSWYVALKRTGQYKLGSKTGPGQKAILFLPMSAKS
T5 sequence (P01127 82-190 limits assumed): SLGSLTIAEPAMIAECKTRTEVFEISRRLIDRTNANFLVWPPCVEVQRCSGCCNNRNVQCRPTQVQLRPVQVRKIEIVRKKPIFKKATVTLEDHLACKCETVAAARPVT

| Molecule | binding to PDGF-BB (PDGF-BB) | binding to VEGF-A165 (VEGF-A165) | binding to PlGF-1 (PlGF-1) | binding to FGF-2 (FGF-2) | binding to PlGF-2 (PlGF-2) | binding to VEGF-A121 (VEGF-A121) |
| --- | --- | --- | --- | --- | --- | --- |
| B1 | bound | bound | did not show any binding | bound | bound | did not show any binding |
| B2 | bound | bound | did not show any binding | bound | bound | did not show any binding |
